This experiment addresses Myl12a, biotinylated (murine) (UniProt Q6ZWQ9). Nature of the experiment: BLI.

SteC 194 aa–364 aa (domain or fragment): the fold decrease of affinity is 10 fold.

The record behind these values is paper PMC11021425, “Salmonella manipulates macrophage migration via SteC-mediated myosin light chain activation to penetrate the gut-vascular barrier” (The EMBO Journal, 2024).
